Assay in all cases: fluorescent magnetic bead binding assay; peptide on beads, aptamer 100-2500 nM; Bead assay: SELEX conditions (PBS, room temperature), 30 min incubation then wash, pH not stated; EIS: 30 min at ambient temperature, PBS wash, read in 0.1 M KCl with 5 mM ferri/ferrocyanide
Holding throughout (details): protein: commercial; tags: none stated; amine-coupled to carboxy magnetic beads

One data set concerns the target T1, PTH (53-84) (UniProt P01270 84-115).
T1 chain: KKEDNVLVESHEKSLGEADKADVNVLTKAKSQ

A further data set addresses T2, PTH (1-84) (UniProt P01270 32-115).
T2 sequence: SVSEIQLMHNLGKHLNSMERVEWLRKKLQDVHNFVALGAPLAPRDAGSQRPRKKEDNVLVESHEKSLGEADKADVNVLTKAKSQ

Another data set addresses T3, PTH (1-34) (UniProt P01270 32-65).
T3 chain: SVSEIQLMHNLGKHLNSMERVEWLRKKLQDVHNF

What is called Kd is the concentration at which binding is half-saturated.

With GCGTGGTATGTGCGTCGTCGCTAATGAATTTGTAGCCTAC (ssDNA) [Aptamer-PTH (53-84)], the dissociation constant (Kd) with PTH (53-84) amounted to 220 ± 57.5 nM. As to TATTGGTATGTGCGTCGTCGGTGACCTCTTTCACGGCCGG (ssDNA) [Aptamer-PTH (1-84)], the Kd with PTH (1-84) amounted to 340 ± 23.3 nM. Molecule GCGTGGTATGTGCATCGTCAGTGAGGGGTTGGCGGCCGAG (ssDNA) [Aptamer-PTH (1-34)] showed a Kd with PTH (1-34) of 516 ± 41 nM.

Values taken from publication PMC12529457, “Selection of DNA Aptamers Against Parathyroid Hormone for Electrochemical Impedimetric Biosensor System Development”.
